Reference: patent US20040038369A1, “Airway-specific trypsin-like enzymes and method of using the same” (priority 2000, published 2004)

What was measured:
Format in all cases: cell-based
[1] = target: T1, PAR-2 (Homo sapiens, UniProt P55085); experiment: Calcium influx in PAR-2-expressing insect cells; conditions: AST 2 units/mL; trypsin, thrombin 0.1 to 10 units/mL; SFLLRNamide, SLIGRL 10 to 100 μM
T1 construct: expressed in transfected cells; host or cells: Sf9 insect cells infected with recombinant baculovirus VL-PAR (pVL1393)
T1 sequence (P55085 26-397): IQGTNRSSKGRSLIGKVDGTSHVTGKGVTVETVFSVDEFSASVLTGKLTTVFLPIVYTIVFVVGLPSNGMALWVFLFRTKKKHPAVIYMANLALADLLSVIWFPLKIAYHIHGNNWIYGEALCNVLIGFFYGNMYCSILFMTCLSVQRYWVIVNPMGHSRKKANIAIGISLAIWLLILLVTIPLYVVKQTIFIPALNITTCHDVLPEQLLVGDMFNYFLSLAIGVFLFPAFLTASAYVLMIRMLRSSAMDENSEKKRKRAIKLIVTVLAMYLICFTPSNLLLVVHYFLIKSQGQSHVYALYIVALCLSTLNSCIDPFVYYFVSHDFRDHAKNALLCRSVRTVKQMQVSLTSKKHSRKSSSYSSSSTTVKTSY
Experimental: (§1) The above-obtained recombinant baculovirus VL-PAR for expressing the PAR was used to infect 1.0×10^7 Sf9 cells sowed on a 75 cm^2 flask at an MOI=2, and was then left and stationally cultured at 27° C. for 40 hours. After the culture, the infected cells were recovered and then subjected to a calcium influx experiment to-confirm the function of the PAR.
(§2) The recovered infected cells (about 5×10^6 cells) were once washed with HEPES-Tyrode buffer solution-Ca^2+ (−) pH 7.4, and then suspended in 5 mL of HEPES-Tyrode buffer solution (containing Fura2-AM, 1 μg/mL) to load the Fura2-AM on the cells at 27° C. for 30 minutes. The suspension was centrifuged at 800 rpm at room temperature for 5 minutes to recover the cells. The cells were twice washed with HEPES-Tyrode buffer solution-Ca^2+ (−) pH 7.4 and then resuspended in 5 mL of HEPES-Tyrode buffer solution-Ca^2+ (−) pH 7.4. The cell suspension was mixed with 5 μL of 1M CaCl2 to give a final concentration of 1 mM CaCl2, and then incubated in a shaded state at room temperature for 5 minutes. The prepared Fura2-AM-loaded infected cells were dispensed into a 96 well plate in a volume of 100 μL/well, further subjected to the dispensation of HEPES-Tyrode buffer solution-C^2+ (+) pH 7.4 in a volume of 80 μL/well, and then assayed with a Fluorescence Drug Screening System (made by Hamamatsu Photonics Co.). […]

[2] = test system: BEAS-2B; experiment: Calcium influx in airway epithelial cell strain BEAS-2B; conditions: AST 2 units/mL; trypsin 10 to 100 units/mL; SFLLRNamide 100 μM
Experimental: The Ca^2+ influx due to the AST was examined with respect to an airway epithelial cell strain BEAS-2B. The confluent cells adhered to six 10 cm dishes were used. The cells were peeled with a 10 mM EDTA/HEPES-Tyrode buffer solution for 10 minutes, recovered by a centrifugal treatment at 1,500 rpm at room temperature for 5 minutes, and then resuspended in 10 mL of HEPES-Tyrode buffer solution-Ca^2+ (−) pH 7.4. The recovered cells (about 1.1×10^7 cells) were suspended in 11 mL of HEPES-Tyrode buffer solution (1 μg/mL, containing Fura2-AM) to load the Fura2-AM at 37° C. for 30 minutes. The cells were recovered by a centrifugal treatment at 1,500 rpm at room temperature for 5 minutes, twice washed with HEPES-Tyrode buffer solution-Ca^2+ (−) pH 7.4, and then resuspended in 11 mL of HEPES-Tyrode buffer solution-Ca^2+ (−) pH 7.4. The cell suspension was mixed with […] of 1M CaCl2 to give a final concentration of 1 mM CaCl2, and then incubated in a shaded state at room temperature for 5 minutes. The prepared Fura2-AM-loaded infected cells were dispensed into a 96 well plate in a volume of 100 μL/well, further subjected to the dispensation of HEPES-Tyrode buffer solution-Ca^2+ (+) pH 7.4 in a volume of 80 μL/well, and then assayed with Fluorescence Drug Screening System (Hamamatsu Photonics Co.). […]

[3] = target: T2, PAR-1 (Homo sapiens, UniProt P25116); experiment: Calcium influx in PAR-1-expressing insect cells; conditions: AST 2 units/mL; trypsin, thrombin 0.1 to 10 units/mL; SFLLRNamide 10 to 100 μM
T2 construct: expressed in transfected cells; host or cells: Sf9 insect cells infected with recombinant baculovirus VL-PAR (pVL1393)
T2 sequence (P25116 22-425): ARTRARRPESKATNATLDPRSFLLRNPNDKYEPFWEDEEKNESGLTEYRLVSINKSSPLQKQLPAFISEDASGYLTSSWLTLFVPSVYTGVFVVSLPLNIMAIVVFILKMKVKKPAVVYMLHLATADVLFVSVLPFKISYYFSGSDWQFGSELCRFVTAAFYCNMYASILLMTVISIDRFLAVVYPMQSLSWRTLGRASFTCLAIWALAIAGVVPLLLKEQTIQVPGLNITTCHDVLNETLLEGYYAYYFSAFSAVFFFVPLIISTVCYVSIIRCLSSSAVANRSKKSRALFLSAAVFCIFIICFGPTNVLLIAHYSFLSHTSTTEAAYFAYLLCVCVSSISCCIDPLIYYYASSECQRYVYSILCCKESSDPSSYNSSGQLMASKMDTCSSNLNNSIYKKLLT
Experimental: The recovered infected cells (about 5×10^6 cells) were once washed with HEPES-Tyrode buffer solution-Ca^2+ (−) pH 7.4, and then suspended in 5 mL of HEPES-Tyrode buffer solution (containing Fura2-AM, 1 μg/mL) to load the Fura2-AM on the cells at 27° C. for 30 minutes. The suspension was centrifuged at 800 rpm at room temperature for 5 minutes to recover the cells. The cells were twice washed with HEPES-Tyrode buffer solution-Ca^2+ (−) pH 7.4 and then resuspended in 5 mL of HEPES-Tyrode buffer solution-Ca^2+ (−) pH 7.4. The cell suspension was mixed with 5 μL of 1M CaCl2 to give a final concentration of 1 mM CaCl2, and then incubated in a shaded state at room temperature for 5 minutes. The prepared Fura2-AM-loaded infected cells were dispensed into a 96 well plate in a volume of 100 μL/well, further subjected to the dispensation of HEPES-Tyrode buffer solution-C^2+ (+) pH 7.4 in a volume of 80 μL/well, and then assayed with a Fluorescence Drug Screening System (made by Hamamatsu Photonics Co.). Namely, [intensity of 500 nm fluorescent light due to 340 nm exciting light]/[intensity of 500 nm fluorescent light due to 380 nm exciting light] (reflecting the concentration of calcium in the cells) was assayed.

[4] = target: T3, PAR-4 (Homo sapiens, UniProt Q96RI0); experiment: Calcium influx in PAR-4-expressing insect cells; conditions: AST 2 units/ml; trypsin, thrombin 0.1 to 10 units/mL
T3 construct: expressed in transfected cells; host or cells: Sf9 insect cells infected with recombinant baculovirus VL-PAR (pVL1393)
T3 sequence (Q96RI0 18-385): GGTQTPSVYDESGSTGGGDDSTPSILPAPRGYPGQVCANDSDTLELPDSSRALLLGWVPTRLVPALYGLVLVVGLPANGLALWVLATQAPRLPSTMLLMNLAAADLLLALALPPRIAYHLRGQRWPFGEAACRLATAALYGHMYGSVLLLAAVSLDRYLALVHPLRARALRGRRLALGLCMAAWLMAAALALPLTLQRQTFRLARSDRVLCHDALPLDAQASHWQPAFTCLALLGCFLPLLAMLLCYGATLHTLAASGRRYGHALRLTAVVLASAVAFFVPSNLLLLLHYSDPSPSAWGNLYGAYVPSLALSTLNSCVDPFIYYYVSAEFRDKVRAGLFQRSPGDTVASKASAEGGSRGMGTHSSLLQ
Experimental: as §1, §2

[5] = test system: normal human airway epithelial cells; experiment: Calcium influx in normal human airway epithelial cells; conditions: AST 2 units/mL; trypsin 10 to 100 units/mL; SFLLRNamide 100 μM
Experimental: The Ca^2+ influx due to the AST was examined with confluent normal epithelial cells adhered to three 10 cm dishes (purchased from BioWhittaker Corp.). The cells were peeled with a 10 mM EDTA/HEPES-Tyrode buffer solution for 10 minutes, recovered by a centrifugal treatment at 800 rpm at room temperature for 5 minutes, and then resuspended in 5 mL of HEPES-Tyrode buffer solution-Ca^2+ (−) pH 7.4. The recovered cells (about 1.2×10^6 cells) were suspended in 5 mL of HEPES-Tyrode buffer solution (1 μg/mL, containing Fura2-AM) to load the Fura2-AM to the cells at 37° C. for one hour. The cells were recovered by a centrifugal treatment at 800 rpm at room temperature for 5 minutes, twice washed with HEPES-Tyrode buffer solution-Ca^2+ (−) pH 7.4, and then resuspended in […] of HEPES-Tyrode buffer solution-Ca^2+ (−) pH 7.4. The cell suspension was mixed with 5 μL of 1M CaCl2 to give a final concentration of 1 mM CaCl2, and then incubated in a shaded state at room temperature for 5 minutes. The prepared Fura2-AM-loaded infected cells were dispensed into a 96 well plate in a volume of 100 μL/well, further subjected to the dispensation of HEPES-Tyrode buffer solution-Ca^2+ (+) pH 7.4 in a volume of 80 μL/well, and then assayed with Fluorescence Drug Screening System (Hamamatsu Photonics Co.). […]

Measured: Ca2+ influx

B1: trypsin: trypsin originated from bovine pancreas (protein)
chain: IVGGYTCGANTVPYQVSLNSGYHFCGGSLINSQWVVSAAHCYKSGIQVRLGEDNINVVEGNEQFISASKSIVHPSYNSNTLNNDIMLIKLKSAASLNSRVASISLPTSCASAGTQCLISGWGNTKSSGTSYPDVLKCLKAPILSDSSCKSAYPGQITSNMFCAGYLEGGKDSCQGDSGGPVVCSGKLQGIVSWGSGCAQKNKPGVYTKVCNYVSWIKQTIASN
observed: all assays above
